Assay results taken from article PMC5387740.

Target: osteopontin (UniProt P10451)
Chain of UniProt P10451 (P10451 17-314): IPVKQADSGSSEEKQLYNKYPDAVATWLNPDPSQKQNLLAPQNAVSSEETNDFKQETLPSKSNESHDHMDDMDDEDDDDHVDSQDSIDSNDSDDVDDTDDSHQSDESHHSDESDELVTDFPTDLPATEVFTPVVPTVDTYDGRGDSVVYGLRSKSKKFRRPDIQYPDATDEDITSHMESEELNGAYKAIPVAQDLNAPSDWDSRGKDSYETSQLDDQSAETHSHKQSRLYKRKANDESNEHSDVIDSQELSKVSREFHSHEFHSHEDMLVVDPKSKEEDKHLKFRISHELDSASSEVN

integrin alpha v (αV) (receptor)
PDGF-BB-stimulated fibroblast migration on osteopontin (monolayer wound closure, 24 h): inhibition by integrin αV blocking antibody in the panel of integrin blocking antibodies (Fig. 3B): 92% | PDGF-BB-stimulated fibroblast migration on osteopontin (monolayer wound closure, 24 h): reduction by integrin αV blocking antibody compared to control IgG (Fig. 3A): 91%
